Assay results as given in IntAct's records for PubMed 24880343.

B1: PAN2-PAN3 deadenylation complex subunit pan3 (Neurospora crassa (strain ATCC 24698 / 74-OR23-1A / CBS 708.71 / DSM 1257 / FGSC 987)), Q7SDP4 (parent)
chain: MAATRYNSGDLRRQVGSPRAKNRDTKETLCRNVVIYGHCRWEDSGCTFNHDQNKASVSQTDLNSNRRVFNVESPSFTPANQQQSAGKKSTFSSQAASAAPFTPRGVGTSTPTLQQANDSTIFNPAAIREFTPQNYDVGNTISQNGAQHVTQDGGLYSDPFSISSLGQTMPPQGQYNPYANDPNNLAGAGAGLYQPAGFGNGLVHPPNYHLYQPPSELYRPSLQPYQRTTYDFFIPKDRRENLQKKLFHMQQLLPNSGLPNLDRWHSLFPLDTKATRNSTCFGYPSWMYKAQNNKNGRHFALRRIEGYRLTNEKAILNVTKEWKKIINANIVTVHEAFTTEFFGDSSLIFVYDFHPLSETLYDHHFPPNNSHNRLRNTNKIPENLLWSYVCQIANALLAIHNAKLAARCLELSKIIWENNRIRLAACSILDVLHHDSPNRKTIEELQQEDFVKFGRIILALATNTPTLNFNNIDAALATIVPRYSTQLRGVLEWLIKPSAPGETKTVETLLGGITTHLANFANFVMQESDEKEFHLMRELENGRIARLMFKLSVVNERGDSCGVHNWSETGERLLLKLFRDYVFHQVDADGKARLDTNHYLNCLSKLDASSEEQILLTSRDNATVFVVSYRSIRQMLDRAYGELGKESKPSATGATI
partner: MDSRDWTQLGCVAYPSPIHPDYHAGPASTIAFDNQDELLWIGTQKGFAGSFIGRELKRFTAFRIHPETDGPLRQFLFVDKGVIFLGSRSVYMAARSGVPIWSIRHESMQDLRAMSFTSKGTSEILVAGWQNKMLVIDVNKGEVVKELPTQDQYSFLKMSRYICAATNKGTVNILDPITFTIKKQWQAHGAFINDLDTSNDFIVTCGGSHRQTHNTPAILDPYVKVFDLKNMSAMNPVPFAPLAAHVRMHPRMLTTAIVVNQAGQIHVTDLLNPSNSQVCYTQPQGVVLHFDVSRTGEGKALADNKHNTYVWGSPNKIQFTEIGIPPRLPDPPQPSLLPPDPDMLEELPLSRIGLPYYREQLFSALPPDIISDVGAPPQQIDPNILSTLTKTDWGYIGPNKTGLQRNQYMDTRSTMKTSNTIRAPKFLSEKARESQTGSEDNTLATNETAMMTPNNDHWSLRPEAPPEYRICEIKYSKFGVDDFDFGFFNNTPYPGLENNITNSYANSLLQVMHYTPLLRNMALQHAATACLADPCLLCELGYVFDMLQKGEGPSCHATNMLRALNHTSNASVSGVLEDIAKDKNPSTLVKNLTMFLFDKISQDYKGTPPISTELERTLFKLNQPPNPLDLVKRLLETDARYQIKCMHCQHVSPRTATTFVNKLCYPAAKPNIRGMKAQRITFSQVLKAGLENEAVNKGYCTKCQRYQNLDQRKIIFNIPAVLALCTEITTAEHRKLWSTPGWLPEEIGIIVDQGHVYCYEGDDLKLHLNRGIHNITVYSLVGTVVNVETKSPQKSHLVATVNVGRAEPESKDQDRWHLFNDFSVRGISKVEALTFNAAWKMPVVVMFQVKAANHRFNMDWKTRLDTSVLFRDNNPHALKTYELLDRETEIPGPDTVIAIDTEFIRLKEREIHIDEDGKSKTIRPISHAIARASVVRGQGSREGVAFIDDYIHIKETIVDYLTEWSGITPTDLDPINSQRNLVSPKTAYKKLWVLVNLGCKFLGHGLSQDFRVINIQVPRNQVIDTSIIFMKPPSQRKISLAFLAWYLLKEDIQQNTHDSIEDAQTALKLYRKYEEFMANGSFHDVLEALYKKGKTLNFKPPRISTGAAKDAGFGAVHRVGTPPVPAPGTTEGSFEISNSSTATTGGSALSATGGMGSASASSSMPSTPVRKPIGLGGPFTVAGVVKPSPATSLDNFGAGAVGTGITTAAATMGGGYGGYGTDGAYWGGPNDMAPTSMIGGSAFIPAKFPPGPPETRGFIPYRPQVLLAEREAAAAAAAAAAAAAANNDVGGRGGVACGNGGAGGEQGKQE
B2: PAN2-PAN3 deadenylation complex subunit PAN3 (Drosophila melanogaster (Fruit fly)), Q95RR8 (parent)
chain: MCSTYGLLSFEFSDTAAMDPIFFSPTNGIPSESKLATYMNRQNVATPSGYGLNNGFSLLNLDSPLNKKSQVTPQSPEFIPTRLGSTPNFYAPYHNAPMQLSNGLNGVNGLTAAAAAAAAAAAAAAAAVPSSTSSASSASVTISKTANGGASMLALQKTASIASVTIAQQQPQHPQKQQQHPPSVGGGAVSAASAPIAISGAPPNPAAAPFVSSMSAQTPLKGRGAMMRQESPTAAMISGAGPGEKSPPHGMTPHGASPIPSALPTSVHQENVGGTIYFYPTANAQNSQPVVNSMVVDGTHPALHGVSAVAPMSAGVPAAMMYTGHVYPGPSSNVVTMQPKTLLESAFFMPDEMRAEVLARNEISNLIMDAAEAAQHALPLEVENYHALYPLEPPAQPLHAKLTFPATTYRATHNTTGYKYCLRRIHGFRLQSTKCMTLVEMWKKLQHTNVVQLREVFTTKAFGDNSLVLVYDYHPGSQTLLAKYFTPAPETNGYTDPFQGEARPFSHKSNMQRTSNGPLLPEATIWSIIMQLTAGLKAIHHAGLACKVLDPTKIIVTGKRVRFSSCCISDITQFDPNASNPLALVNMHQQDDLTALGRLVLALACRCLQSVQRDNVQSSIDMVTRNYSTDLRNFIVYLFTTNNRRSVTDLMPMIGARFYTQLDALQSKIDMQEDELAKEMENGRLYRILVKLNSINERPDFNLDCTWSETGDRYMLKLFRDYLFHSVTEDGRPWLDHAHIVQCLNKLDAGSIERVQLMSRDEQSVLIVSYAELKNCLENAFSELMSSAAN
B3: PAN2-PAN3 deadenylation complex catalytic subunit pan2 (Neurospora crassa (strain ATCC 24698 / 74-OR23-1A / CBS 708.71 / DSM 1257 / FGSC 987)), P0C581 (parent)
chain: B1 partner
partner: B1 chain

Variants of: B1
Conditions: with pan2_neucr par-1, P0C581

Row | effect of a mutation on the interaction | Variant
1 | disrupting interaction strength | V627E

Variants of: B2
Conditions: with pan2_drome PAN2, A1Z7K9
pan2_drome PAN2, A1Z7K9, sequence (A1Z7K9 whole entry): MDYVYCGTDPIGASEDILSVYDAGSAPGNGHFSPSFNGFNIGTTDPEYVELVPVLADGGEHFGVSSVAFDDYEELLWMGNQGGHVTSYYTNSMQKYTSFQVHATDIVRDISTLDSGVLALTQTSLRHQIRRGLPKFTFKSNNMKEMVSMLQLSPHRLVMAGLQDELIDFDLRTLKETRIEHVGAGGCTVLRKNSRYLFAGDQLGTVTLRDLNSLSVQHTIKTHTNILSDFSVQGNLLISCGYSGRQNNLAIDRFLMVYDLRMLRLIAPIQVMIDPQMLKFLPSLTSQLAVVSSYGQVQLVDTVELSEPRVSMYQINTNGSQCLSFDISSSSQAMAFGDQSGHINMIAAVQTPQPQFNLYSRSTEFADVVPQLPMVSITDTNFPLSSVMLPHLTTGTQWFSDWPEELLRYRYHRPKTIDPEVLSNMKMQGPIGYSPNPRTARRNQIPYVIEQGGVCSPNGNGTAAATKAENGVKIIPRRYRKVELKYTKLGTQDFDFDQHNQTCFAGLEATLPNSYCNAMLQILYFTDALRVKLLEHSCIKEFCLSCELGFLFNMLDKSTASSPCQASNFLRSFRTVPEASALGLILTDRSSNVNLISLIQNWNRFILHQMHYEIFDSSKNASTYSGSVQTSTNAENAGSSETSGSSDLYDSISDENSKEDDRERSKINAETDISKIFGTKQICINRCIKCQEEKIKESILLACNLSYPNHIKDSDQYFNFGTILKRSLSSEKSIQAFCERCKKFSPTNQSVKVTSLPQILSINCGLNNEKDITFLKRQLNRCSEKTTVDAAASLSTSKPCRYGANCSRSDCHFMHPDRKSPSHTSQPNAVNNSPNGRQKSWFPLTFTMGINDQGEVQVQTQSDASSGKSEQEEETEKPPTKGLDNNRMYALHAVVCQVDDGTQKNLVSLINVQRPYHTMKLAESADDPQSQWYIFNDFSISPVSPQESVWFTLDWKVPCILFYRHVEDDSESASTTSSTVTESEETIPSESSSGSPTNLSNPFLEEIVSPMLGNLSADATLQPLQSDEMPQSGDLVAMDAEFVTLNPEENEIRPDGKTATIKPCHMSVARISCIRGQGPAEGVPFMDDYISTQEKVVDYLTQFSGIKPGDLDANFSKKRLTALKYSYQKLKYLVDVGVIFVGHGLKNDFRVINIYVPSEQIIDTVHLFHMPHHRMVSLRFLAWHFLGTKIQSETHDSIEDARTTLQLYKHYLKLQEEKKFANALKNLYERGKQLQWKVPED

Row | effect of a mutation on the interaction | Variant
2 | decreasing interaction strength | Y722A;H739A;R754A
3 | decreasing interaction strength | W707A;G711E;Y722A;H739A;R754A

Variants of: B3
Conditions: with pan3_neucr par-2, Q7SDP4

Row | effect of a mutation on the interaction | Variant
4 | disrupting interaction strength | T60R
5 | disrupting interaction strength | G97E
6 | disrupting interaction strength | P99R
7 | disrupting interaction strength | F62E
